# Source: publication PMC5218472 (PLoS Biology, 2017)
# What was measured:
# [1] = in vitro peptide cleavage, 16 h, RP chromatography; settings: glycan gained; control: unglycosylated synthetic peptide 1(QD)
# ADAM10 = assay: Ionomycin-induced ADAM10-mediated IL-6R ectodomain shedding in transiently transfected HEK293 cells, sIL-6R ELISA; format: cell-based, human; settings: normalised to PVQD Iono = 100, mean of n = 3
# Description: Analysis of IL-6R ectodomain shedding in transiently transfected HEK293 cells or stably transduced Ba/F3-gp130 cell lines by ADAM10 and ADAM17 has been described elsewhere. Analysis of IL-6R proteolysis by CG has been described previously.
# The sandwich ELISA, which detects sIL-6R as well as ds-sIL-6R (4-11/Baf227 antibodies) and can be used to quantify total sIL-6R serum levels, was described previously. To specifically detect ds-sIL-6R (either recombinant or in human serum), a similar approach was used (ds6R/Baf227). Both sandwich ELISAs were performed with streptavidin-horseradish peroxidase (R&D Systems, Minneapolis, Minnesota, US) and the peroxidase substrate BM blue POD (Roche, Mannheim, Germany). The enzymatic reaction was stopped by addition of 1.8 M sulfuric acid, and the absorbance read at 450 nm on a Tecan rainbow reader (Tecan, Crailsheim, Germany).
# Supplementary file pbio.2000080.s004.tif: S4 Fig Mutation of Val-356 is sufficient to block ADAM10-mediated proteolysis of the IL-6R and the Asp358Ala variant. (A) HEK293 cells were transiently transfected with Expression plasmids encoding the wildtype IL-6R (PV) or the double mutants (IE, DG) as indicated. Cells were either treated with 1 μM ionomycin for 1 h or DMSO as vehicle control. sIL-6R was precipitated from the supernatant with concanavalin A-covered Sepharose beads, and cells were lysed. Both were analyzed via Western blot, and β-actin served as loading control. One out of three experiments with similar outcome is shown. (B, C) The experiment was performed as described under (A), but sIL-6R generation was analyzed via ELISA. In (B), the amount of sIL-6R generated after ionomycin-stimulation of the wildtype IL-6R (PV) was set to 100%, and all other values were calculated accordingly. In (C), the amount of sIL-6R without stimulation was considered as constitutive shedding and set to 1 and the increase of sIL-6R was calculated. Data shown are the mean ± SD from at least three independent experiments (*p<0.05, ns = no significant difference). (D-F) HEK293 cells were transiently transfected with expression plasmids encoding the wildtype IL-6R (PV) or the single mutants (DV, IV, PE, PG) as indicated. The experiments were performed as described in (A) to (C). (G) ADAM10-mediated proteolysis of the IL-6R variants depicted in Fig 4I was analyzed as described in (B). (H) Equal numbers of Ba/F3-gp130-IL-6R_DG cells were incubated for 48 h with increasing amounts (0–100 ng/ml) of either IL-6 or Hyper-IL-6. One representative experiment out of three performed is shown (mean ± SD, biological triplicates). (TIF) Click here for additional data file.
Molecule,"other: proteolytic processing, other: percent peptide intact [1]","sIL-6R shedding, Figure S4G, mean (ADAM10; treatment DMSO)","sIL-6R shedding, Figure S4G, mean (ADAM10; treatment Iono)"
"IL-6R / sIL-6R (interleukin-6 receptor): peptide 3(QD), GlcNAc at Asn-350 (protein) parent chain: MLAVGCALLAALLAAPGAALAPRRCPAQEVARGVLTSLPGDSVTLTCPGVEPEDNATVHWVLRKPAAGSHPSRWAGMGRRLLLRSVQLHDSGNYSCYRAGRPAGTVHLLVDVPPEEPQLSCFRKSPLSNVVCEWGPRSTPSLTTKAVLLVRKFQNSPAEDFQEPCQYSQESQKFSCQLAVPEGDSSFYIVSMCVASSVGSKFSKTQTFQGCGILQPDPPANITVTAVARNPRWLSVTWQDPHSWNSSFYRLRFELRYRAERSKTFTTWMVKDLQHHCVIHDAWSGLRHVVQLRAQEEFGQGEWSEWSPEAMGTPWTESRSPPAENEVSTPMQALTTNKDDDNILFRDSANATSLPVQDSSSVPLPTFLVAGGSLAFGTLLCIAIVLRFKKTWKLRALKEGKTSMHPPYSLGQLVPERPRPTPVLVPLISPPVSPSSLGSDNTSSHNRPDARDPRSPYDISNTDYFFPR",decreases,,
"IL-6R / sIL-6R (interleukin-6 receptor): peptide 5(QD), biantennary N-glycan at Asn-350 (protein) parent chain: MLAVGCALLAALLAAPGAALAPRRCPAQEVARGVLTSLPGDSVTLTCPGVEPEDNATVHWVLRKPAAGSHPSRWAGMGRRLLLRSVQLHDSGNYSCYRAGRPAGTVHLLVDVPPEEPQLSCFRKSPLSNVVCEWGPRSTPSLTTKAVLLVRKFQNSPAEDFQEPCQYSQESQKFSCQLAVPEGDSSFYIVSMCVASSVGSKFSKTQTFQGCGILQPDPPANITVTAVARNPRWLSVTWQDPHSWNSSFYRLRFELRYRAERSKTFTTWMVKDLQHHCVIHDAWSGLRHVVQLRAQEEFGQGEWSEWSPEAMGTPWTESRSPPAENEVSTPMQALTTNKDDDNILFRDSANATSLPVQDSSSVPLPTFLVAGGSLAFGTLLCIAIVLRFKKTWKLRALKEGKTSMHPPYSLGQLVPERPRPTPVLVPLISPPVSPSSLGSDNTSSHNRPDARDPRSPYDISNTDYFFPR",abolishes,,
"IL-6R / sIL-6R (interleukin-6 receptor): peptide 7(QD), GalNAc at Thr-352 (protein) parent chain: MLAVGCALLAALLAAPGAALAPRRCPAQEVARGVLTSLPGDSVTLTCPGVEPEDNATVHWVLRKPAAGSHPSRWAGMGRRLLLRSVQLHDSGNYSCYRAGRPAGTVHLLVDVPPEEPQLSCFRKSPLSNVVCEWGPRSTPSLTTKAVLLVRKFQNSPAEDFQEPCQYSQESQKFSCQLAVPEGDSSFYIVSMCVASSVGSKFSKTQTFQGCGILQPDPPANITVTAVARNPRWLSVTWQDPHSWNSSFYRLRFELRYRAERSKTFTTWMVKDLQHHCVIHDAWSGLRHVVQLRAQEEFGQGEWSEWSPEAMGTPWTESRSPPAENEVSTPMQALTTNKDDDNILFRDSANATSLPVQDSSSVPLPTFLVAGGSLAFGTLLCIAIVLRFKKTWKLRALKEGKTSMHPPYSLGQLVPERPRPTPVLVPLISPPVSPSSLGSDNTSSHNRPDARDPRSPYDISNTDYFFPR",decreases,,
"PVQA: IL-6R Asp358Ala variant (protein, UniProt P08887 20-468, looked up, variant D358A) Interleukin-6 receptor …: LAPRRCPAQEVARGVLTSLPGDSVTLTCPGVEPEDNATVHWVLRKPAAGSHPSRWAGMGRRLLLRSVQLHDSGNYSCYRAGRPAGTVHLLVDVPPEEPQLSCFRKSPLSNVVCEWGPRSTPSLTTKAVLLVRKFQNSPAEDFQEPCQYSQESQKFSCQLAVPEGDSSFYIVSMCVASSVGSKFSKTQTFQGCGILQPDPPANITVTAVARNPRWLSVTWQDPHSWNSSFYRLRFELRYRAERSKTFTTWMVKDLQHHCVIHDAWSGLRHVVQLRAQEEFGQGEWSEWSPEAMGTPWTESRSPPAENEVSTPMQALTTNKDDDNILFRDSANATSLPVQASSSVPLPTFLVAGGSLAFGTLLCIAIVLRFKKTWKLRALKEGKTSMHPPYSLGQLVPERPRPTPVLVPLISPPVSPSSLGSDNTSSHNRPDARDPRSPYDISNTDYFFPR",,109.87,197.873
